# Results from patent US20110239316A1 (PIERRE FABRE MEDICAMENT, published 2011).
# Positions count from the first letter of the chain named.
# B1: [224G11] [Hz1] (antibody, V domains shown)
# VH: QVQLVQSGAEVKKPGASVKVSCKASGYIFTAYTMHWVRQAPGQGLEWMGWIKPNNGLANYAQKFQGRVTMTRDTSISTAYMELSRLRSDDTAVYYCARSEITTEFDYWGQGTLVTVSS
# VL: DIVLTQSPDSLAVSLGERATINCKSSESVDSYANSFMHWYQQKPGQPPKLLIYRASTRESGVPDRFSGSGSRTDFTLTISSLQAEDVAVYYCQQSKEDPLTFGGGTKVEIKR
# B2: [224G11] [TH7 Hz2] (antibody, human IgG1, V domains shown)
# VH: B1 VH
# VL: B1 VL with L4M, R72G
# B3: [224G11] [Hz3] (antibody, V domains shown)
# VH: B1 VH
# VL: B1 VL with L4M, M37L, R72G
# B4: [224G11] [Hz2] (antibody, V domains shown)
# VH: B1 VH
# VL: B1 VL with L4M, R72G
# B5: [224G11] [TH7 Hz1] (antibody, human IgG1, V domains shown)
# VH: B1 VH
# VL: B1 VL
# B6: [224G11] [TH7 Hz3] (antibody, human IgG1, V domains shown)
# VH: B1 VH
# VL: B1 VL with L4M, M37L, R72G
# B7: murine 224G11 Mab (antibody, V domains shown)
# VH: EVQLQQSGPELVKPGASVKISCKTSGYIFTAYTMHWVRQSLGESLDWIGGIKPNNGLANYNQKFKGKATLTVDKSSSTAYMDLRSLTSEDSAVYYCARSEITTEFDYWGQGTALTVSS
# VL: DIVLTQSPASLAVSLGQRATISCRASESVDSYANSFMHWYQQKPGQPPKLLIYRASNLESGIPARFSGSGSRTDFTLTINPVEADDVATYYCQQSKEDPLTFGSGTKLEMKR
# B8: [224G11] [MMCH chim] (antibody, V domains shown)
# VH: B7 VH
# VL: B7 VL
# B9: [224G11] [MH chim] (antibody, V domains shown)
# VH: B7 VH
# VL: B7 VL
# B10: [224G11]chim (antibody, human IgG1, V domains shown)
# VH: B7 VH
# VL: B7 VL
# B11: [224G11] [MUP9H chim] (antibody, V domains shown)
# VH: B7 VH
# VL: B7 VL
# B12: [224G11] [TH7 chim] (antibody, human IgG1)
# heavy: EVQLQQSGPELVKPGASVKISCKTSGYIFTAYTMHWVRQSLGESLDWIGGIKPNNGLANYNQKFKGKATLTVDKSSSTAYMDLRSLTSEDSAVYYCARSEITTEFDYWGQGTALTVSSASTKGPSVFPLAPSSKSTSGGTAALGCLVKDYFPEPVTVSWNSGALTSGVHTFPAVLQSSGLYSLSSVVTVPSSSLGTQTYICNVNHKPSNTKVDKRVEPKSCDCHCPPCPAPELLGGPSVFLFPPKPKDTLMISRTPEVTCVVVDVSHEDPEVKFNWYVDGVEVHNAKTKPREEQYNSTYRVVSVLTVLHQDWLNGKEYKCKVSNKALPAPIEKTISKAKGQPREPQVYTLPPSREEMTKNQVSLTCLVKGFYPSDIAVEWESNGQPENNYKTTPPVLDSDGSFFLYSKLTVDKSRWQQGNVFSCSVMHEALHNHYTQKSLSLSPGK
# light: DIVLTQSPASLAVSLGQRATISCRASESVDSYANSFMHWYQQKPGQPPKLLIYRASNLESGIPARFSGSGSRTDFTLTINPVEADDVATYYCQQSKEDPLTFGSGTKLEMKRTVAAPSVFIFPPSDEQLKSGTASVVCLLNNFYPREAKVQWKVDNALQSGNSQESVTEQDSKDSTYSLSSTLTLSKADYEKHKVYACEVTHQGLSSPVTKSFNRGEC
# B13: [224G11] [IgG2 chim] (antibody)
# heavy: EVQLQQSGPELVKPGASVKISCKTSGYIFTAYTMHWVRQSLGESLDWIGGIKPNNGLANYNQKFKGKATLTVDKSSSTAYMDLRSLTSEDSAVYYCARSEITTEFDYWGQGTALTVSSASTKGPSVFPLAPCSRSTSESTAALGCLVKDYFPEPVTVSWNSGALTSGVHTFPAVLQSSGLYSLSSVVTVPSSNFGTQTYTCNVDHKPSNTKVDKTVERKCCVECPPCPAPPVAGPSVFLFPPKPKDTLMISRTPEVTCVVVDVSHEDPEVQFNWYVDGVEVHNAKTKPREEQFNSTFRVVSVLTVVHQDWLNGKEYKCKVSNKGLPAPIEKTISKTKGQPREPQVYTLPPSREEMTKNQVSLTCLVKGFYPSDIAVEWESNGQPENNYKTTPPMLDSDGSFFLYSKLTVDKSRWQQGNVFSCSVMHEALHNHYTQKSLSLSPG
# light: B12 light
# Assays:
# [1] = target: human c-Met receptor (human, UniProt P08581 25-1390); assay: cell-based or functional assay
# Chain of human c-Met receptor (P08581 25-1390): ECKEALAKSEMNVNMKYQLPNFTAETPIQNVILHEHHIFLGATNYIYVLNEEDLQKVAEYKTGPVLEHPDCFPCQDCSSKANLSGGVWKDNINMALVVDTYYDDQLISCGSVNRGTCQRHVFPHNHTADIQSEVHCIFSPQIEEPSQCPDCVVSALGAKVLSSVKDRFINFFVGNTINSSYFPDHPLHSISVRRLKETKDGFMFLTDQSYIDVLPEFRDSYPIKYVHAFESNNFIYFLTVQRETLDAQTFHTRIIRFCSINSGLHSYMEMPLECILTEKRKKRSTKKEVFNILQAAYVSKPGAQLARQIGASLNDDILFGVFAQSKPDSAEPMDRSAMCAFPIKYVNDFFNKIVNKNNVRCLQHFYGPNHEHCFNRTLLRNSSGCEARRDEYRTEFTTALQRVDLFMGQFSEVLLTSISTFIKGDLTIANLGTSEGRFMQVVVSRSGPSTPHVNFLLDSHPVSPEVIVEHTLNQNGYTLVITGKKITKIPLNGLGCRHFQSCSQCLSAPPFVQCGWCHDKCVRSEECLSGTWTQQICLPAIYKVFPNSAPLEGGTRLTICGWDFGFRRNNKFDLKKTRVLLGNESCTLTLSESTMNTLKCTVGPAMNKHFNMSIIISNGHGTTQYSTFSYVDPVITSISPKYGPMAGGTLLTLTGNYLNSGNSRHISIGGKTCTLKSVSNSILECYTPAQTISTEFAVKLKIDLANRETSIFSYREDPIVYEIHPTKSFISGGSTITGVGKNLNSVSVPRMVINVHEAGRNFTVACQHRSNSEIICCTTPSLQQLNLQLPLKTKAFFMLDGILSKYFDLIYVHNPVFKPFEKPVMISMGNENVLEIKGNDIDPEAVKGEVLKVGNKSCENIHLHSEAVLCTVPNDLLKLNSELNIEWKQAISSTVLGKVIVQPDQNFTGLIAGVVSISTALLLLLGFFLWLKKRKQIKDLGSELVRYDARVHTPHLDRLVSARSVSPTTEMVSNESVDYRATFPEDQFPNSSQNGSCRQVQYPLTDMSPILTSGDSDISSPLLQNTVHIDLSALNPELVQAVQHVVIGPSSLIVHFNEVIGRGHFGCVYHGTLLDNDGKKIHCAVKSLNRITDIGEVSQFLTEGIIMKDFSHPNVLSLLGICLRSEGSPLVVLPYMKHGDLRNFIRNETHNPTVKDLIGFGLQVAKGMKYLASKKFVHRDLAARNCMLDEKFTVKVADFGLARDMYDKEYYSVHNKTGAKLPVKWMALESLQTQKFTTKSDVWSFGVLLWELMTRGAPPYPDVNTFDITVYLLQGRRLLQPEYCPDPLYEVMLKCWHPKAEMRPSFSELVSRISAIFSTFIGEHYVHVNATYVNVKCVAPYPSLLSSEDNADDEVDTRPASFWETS
# [2] = target: C-Met-Rluc (R. reniformis, UniProt P08581 25-1390); assay: cell-based or functional assay
# Chain of C-Met-Rluc (P08581 25-1390): as above
Binder,"inhibition of HGF-induced proliferation of NCI-H441 cells ([3H]thymidine), FIG. 14A [1] [%]","inhibition of HGF induced BRET signal, c-Met activation model [2] [%]","inhibition of HGF induced BRET signal, c-Met dimerization model [2] [%]","inhibition of HGF-induced proliferation of NCI-H441 cells ([3H]thymidine), FIG. 15 [1] [%]","inhibition of HGF-induced proliferation of NCI-H441 cells ([3H]thymidine), FIG. 14B [1] [%]","BRET signal with Mab alone, c-Met activation model [2] [%]"
B1,~46,,,,,
B2,,41.8,35.8,,,
B3,~35,,,,,
B4,~30,,,,,
B5,,59.9,52.2,67,,
B6,,57.9,49.4,76,,
B7,66,56.4,59.4,74,57,
B8,,53.2,52.5,,84,-2
B9,,59.7,61.8,,79,5.1
B10,19,34.5,28.9,33,,
B11,,64.4,64.4,,78,7.6
B12,,73.8,64.4,81,93,-6.9
B13,,,62.4,,,
